In the assay the target is glycosylated myrosinase without GST-tag (produced in S. cerevisiae MGY70-myr) (broccoli). The assay can be described thus: SEC; Sephacryl S-200 HR column 0.7 x 30 cm, 1 mL of purified myrosinase fraction (1 mg/mL) loaded, 0.3 mL/min, 0.2 M Tris-HCl pH 7.4; mass from a calibration curve with protein standards; self-association, monomer to dimer. (In gel filtration, larger molecules generally elute earlier.)

Broadly, the stoichiometry N is the number of molecules, sites or subunits per partner or assembly.

Substance “glycosylated myrosinase without GST-tag (produced in S. cerevisiae MGY70-myr) (enzyme)” came in with a stoichiometry N of 2.

The record behind these values is PMC8961631.
